# According to PMC6462504, “Dopamine transporter forms stable dimers in the live cell plasma membrane in a phosphatidylinositol 4,5-bisphosphate–independent manner” (The Journal of Biological Chemistry, 2019):
# Target: the molecule itself
# Assay: single-molecule brightness analysis (TOCCSL); live CHO cells stably expressing mGFP–hDAT, TIRF microscopy of the plasma membrane, room temperature; mobile fraction only; also at low (~5/μm^2) and high (~40/μm^2) surface density and after cholesterol oxidase (2 units/ml, 30 min), MβCD (5 mM, 1 h) or m-3M3FBS (25 μM, 20 min): distribution unchanged
protein,measurement,value
"human dopamine transporter fused to monomeric GFP (mGFP–hDAT) (natural protein, UniProt Q01959 1-620, looked up, human dopamine transporter (hDAT); XhoI/HindIII fragment of hDAT cDNA ligated into mGFP-C1, then cloned into pIB2; mGFP is fused to the cytosolic N terminus of hDAT; also called mEGFP–hDAT; mGFP–DAT; source: CHO cells stably expressing mGFP–hDAT (viral transduction, blasticidine selection), in the live cell plasma membrane; not shown: mGFP (eGFP with A206K), N-terminal, kept) MSKSKCSVGLMSSVVAPAKEPNAVGPKEVELILVKEQNGVQLTSSTLTNPRQSPVEAQDRETWGKKIDFLLSVIGFAVDLANVWRFPYLCYKNGGGAFLVPYLLFMVIAGMPLFYMELALGQFNREGAAGVWKICPILKGVGFTVILISLYVGFFYNVIIAWALHYLFSSFTTELPWIHCNNSWNSPNCSDAHPGDSSGDSSGLNDTFGTTPAAEYFERGVLHLHQSHGIDDLGPPRWQLTACLVLVIVLLYFSLWKGVKTSGKVVWITATMPYVVLTALLLRGVTLPGAIDGIRAYLSVDFYRLCEASVWIDAATQVCFSLGVGFGVLIAFSSYNKFTNNCYRDAIVTTSINSLTSFSSGFVVFSFLGYMAQKHSVPIGDVAKDGPGLIFIIYPEAIATLPLSSAWAVVFFIMLLTLGIDSAMGGMESVITGLIDEFQLLHRHRELFTLFIVLATFLLSLFCVTNGGIYVFTLLDHFAAGTSILFGVLIEAIGVAWFYGVGQFSDDIQQMTGQRPSLYWRLCWKLVSPCFLLFVVVVSIVTFRPPHYGAYIFPDWANALGWVIATSSMAMVPIYAAYKFCSLPGSFREKLAYAIAPEKDRELVDRGEVRQFTLRHWLKV",stoichiometry N,2
